The results in this text go back to publication PMC6462090.

For experiment [1], the target named is USP9X catalytic domain C1727A (human) (UniProt Q93008).
In experiment [2] the target is USP9X catalytic domain H1729A (human) (UniProt Q93008).

Consider Ub-AMC (from UniProt P0CG48 1-76), for which the Km for hydrolysis of Ub-AMC, fold increase against WT in experiment [1] amounted to 5 fold; in experiment [2], 7 fold.
